US20230174652A1 (Regeneron, published 2023)
Blank lines part the entries; values can stand above or below the binder they belong to.

Assays:
human CD28 [1] = target: T1, human CD28 (human, UniProt P10747 19-220); experiment: cell-based or functional assay
human CD28 [2] = target: T1, human CD28; experiment: cell-based or functional assay; remark: listed apart in the source
human CD28 [3] = target: T1, human CD28; experiment: cell-based or functional assay; remark: listed apart in the source
human CD28 [4] = target: T1, human CD28; experiment: cell-based or functional assay; remark: listed apart in the source
human CD22 = target: T2, human CD22 (human, UniProt P20273 20-847); experiment: flow cytometry on Raji/CD80 and CD86 negative cells
T2 construct: whole, on cells; also called hCD22
Experimental: Briefly, human CD4+ T-cells, HEK293/hCD20, HEK293/hCD20/hCD22 and Raji/CD80 and CD86 negative cells were resuspended in staining buffer containing D-PBS+2% FBS. […] A negative control sample was included containing no antibody. Cells were washed once with cold staining buffer and incubated for 30-45 minutes with Allophycocyanin (APC) labeled anti-human secondary antibody. After incubation, cells were washed once with cold D-PBS buffer without FBS and incubated with LIVE/DEAD Fixable Green Dead Cell Stain (Invitrogen) according to manufacturer's instructions to discriminate between live and dead cells. Cells were then fixed in BD Cytofix Buffer according to manufacturer's instructions, washed, re-suspended in staining buffer, and analyzed by flow cytometry on an iQue Screener flow cytometer. For EC₅₀ determinations, geometric mean fluorescence intensity (MFI) values were analyzed using a four parameter logistic equation over a 9-point response curve using GraphPad Prism. Fold binding was calculated using the following equation:

EC50 [M], luciferase activity, reporter T-cells + HEK293/hCD20, 200 pM REGN1945 (no TCR stimulation) (human CD28 [1]): 6.23e-09 M | EC50 [M], luciferase activity, reporter T-cells + HEK293/hCD20/hCD22, 200 pM REGN1945 (no TCR stimulation) (human CD28 [1]): 8.45e-09 M | EC50 [M], luciferase activity, reporter T-cells + Raji/CD80 and CD86 negative, 200 pM REGN1945 (no TCR stimulation) (human CD28 [1]): 7.88e-09 M | Max RLU, luciferase activity, reporter T-cells + HEK293/hCD20, 200 pM REGN1945 (no TCR stimulation) (human CD28 [1]): 25000 RLU | Max RLU, luciferase activity, reporter T-cells + HEK293/hCD20/hCD22, 200 pM REGN1945 (no TCR stimulation) (human CD28 [1]): 25100 RLU | Max RLU, luciferase activity, reporter T-cells + Raji/CD80 and CD86 negative, 200 pM REGN1945 (no TCR stimulation) (human CD28 [1]): 33200 RLU | EC50 [M], luciferase activity, reporter T-cells + HEK293/hCD20, 200 pM REGN2281 (αCD20 x αCD3) (human CD28 [2]): 2.63e-10 M | EC50 [M], luciferase activity, reporter T-cells + HEK293/hCD20/hCD22, 200 pM REGN2281 (αCD20 x αCD3) (human CD28 [2]): 7.7e-11 M | EC50 [M], luciferase activity, reporter T-cells + Raji/CD80 and CD86 negative, 200 pM REGN2281 (αCD20 x αCD3) (human CD28 [2]): 4.33e-10 M | Max RLU, luciferase activity, reporter T-cells + HEK293/hCD20, 200 pM REGN2281 (αCD20 x αCD3) (human CD28 [2]): 409000 RLU | Max RLU, luciferase activity, reporter T-cells + HEK293/hCD20/hCD22, 200 pM REGN2281 (αCD20 x αCD3) (human CD28 [2]): 171000 RLU | Max RLU, luciferase activity, reporter T-cells + Raji/CD80 and CD86 negative, 200 pM REGN2281 (αCD20 x αCD3) (human CD28 [2]): 569000 RLU | EC50 [M], IL-2 release, primary human CD4+ T-cells + Raji/CD80 and CD86 negative, 2 nM REGN1945 (isotype control) (human CD28 [3]): 1.11e-10 M | Max RFU, IL-2 release, primary human CD4+ T-cells + HEK293/hCD20, 2 nM REGN1945 (isotype control) (human CD28 [3]): 2290 RFU | Max RFU, IL-2 release, primary human CD4+ T-cells + HEK293/hCD20/hCD22, 2 nM REGN1945 (isotype control) (human CD28 [3]): 2950 RFU | Max RFU, IL-2 release, primary human CD4+ T-cells + Raji/CD80 and CD86 negative, 2 nM REGN1945 (isotype control) (human CD28 [3]): 49500 RFU | EC50 [M], IL-2 release, primary human CD4+ T-cells + HEK293/hCD20, 2 nM REGN2281 (αCD20 x αCD3) (human CD28 [4]): 2.23e-09 M | EC50 [M], IL-2 release, primary human CD4+ T-cells + Raji/CD80 and CD86 negative, 2 nM REGN2281 (αCD20 x αCD3) (human CD28 [4]): 4.51e-11 M | Max RFU, IL-2 release, primary human CD4+ T-cells + HEK293/hCD20, 2 nM REGN2281 (αCD20 x αCD3) (human CD28 [4]): 68900 RFU | Max RFU, IL-2 release, primary human CD4+ T-cells + HEK293/hCD20/hCD22, 2 nM REGN2281 (αCD20 x αCD3) (human CD28 [4]): 57400 RFU | Max RFU, IL-2 release, primary human CD4+ T-cells + Raji/CD80 and CD86 negative, 2 nM REGN2281 (αCD20 x αCD3) (human CD28 [4]): 249000 RFU
B1: REGN5705 (antibody, V domains shown)
VH: QVQLQESGPGLVKPSETLSLTCTVSGGSISSYYWSWIRQPPGKGLEWIGYIYYSGITHYNPSLKSRVTISVDTSKIQFSLKLSSVTAADTAVYYCARWGVRRDYYYYGMDVWGQGTTVTVSS
VL: not shown

EC50 (human CD22): 9.76 nM
B2: REGN5837 (bispecific antibody, human IgG4, V domains shown)
VH 1: B1 VH
VH 2: EVQLVQSGAEVKKPGESLKISCKGSGYNFATYWIAWVRQMPGKGLELMGIIYPGDSETTYNPSFQGQVTISADKSISNAYLQWSSLKASDTAMYYCARVGGYCSGTSCHNWFDPWGLGTLVTVSS
VL: not shown
notes: also called anti-CD22 x anti-CD28 bispecific antibody; CD22xCD28
